Data set [1] deals with DrLigAΔBRCT (Deinococcus radiodurans, UniProt Q9RSQ5 1-600). The experiment in a line: EMSA; 5 mM MgSO4, 5 mM MnSO4, 300 µM NAD+; no complex up to 1:10 DNA:protein (100 nM DNA); 20 mM Bis-Tris pH 6.0, 5 mM MgSO4, 5 mM MnSO4, 300 µM NAD+, 25% glycerol; 100 nM DNA; 15 min at room temperature; 6% PAGE, 1x TBE, 4 °C. In general terms: In EMSA bound probe runs differently from free probe, usually more slowly.

The target of data set [2] is DrLigA (Deinococcus radiodurans, UniProt Q9RSQ5 1-700). As to the kind of experiment: EMSA; 5 mM MgSO4, 5 mM MnSO4, 300 µM NAD+; 100 nM DNA, tight at 10-fold protein; 20 mM Bis-Tris pH 6.0, 5 mM MgSO4, 5 mM MnSO4, 300 µM NAD+, 25% glycerol; 100 nM DNA; 15 min at room temperature; 6% PAGE, 1x TBE, 4 °C.

Results on 3 molecules are retold here after article PMC10504179.

B1: single nicked 40 nt dsDNA (Template T + N1 + N2) (dsDNA)
DNA 1: ATTGAGTGGACAAAGTATCGTAGGGTAGTATTGGTGGATA
DNA 2: TATCCACCAATACTACCCTA
DNA 3: CGATACTTTGTCCACTCAAT
modifications: none; 5' end at nick not phosphorylated
In the case of B1, the binding result in data set [1] is on record as “no binding”; in data set [2] it was “binds”.

B2: single nick with 10 nt 5'-flap 40 nt dsDNA (Template T + F1 + N2) (dsDNA)
DNA 1: ATTGAGTGGACAAAGTATCGTAGGGTAGTATTGGTGGATA
DNA 2: TATCCACCAATACTACCCTA
DNA 3: TAACGCTGGGCGATACTTTGTCCACTCAAT
modifications: none; 5' end of flap not phosphorylated
B2: the binding result in data set [1] is “no binding”.

B3: 1 nt gapped 40 nt dsDNA (Template T + G1 + G2) (dsDNA)
DNA 1: ATTGAGTGGACAAAGTATCGTAGGGTAGTATTGGTGGATA
DNA 2: TATCCACCAATACTACCCTAC
DNA 3: ATACTTTGTCCACT
modifications: none; 5' end at gap not phosphorylated
As to B3, the binding result is on record as “no binding” in data set [1] and “binds” in data set [2].
